Assay results taken from patent publication US20090282582A1, “ENVIRONMENTAL STRESS RESPONSIVE PROMOTER AND METHOD OF TISSUE-SPECIFIC GENE EXPRESSION USING THE SAME” (RIKEN, priority 2006, published 2009).

B1: Promoter of RAFL06-07-B19: environmental stress responsive promoter DNA, SEQ ID NO: 4, upstream of At3g11410 (AHG3 gene) (nucleic acid, listed as Arabidopsis thaliana)
DNA: CCCGAACTTAACCCAAATGCCCACCTTTAATTATTCAAAACCAAAAAAGAAGTGTTTGATGCTGAGGTTTGAACTCATCAGATACACGTAACTATTTTCCAATTTATTTTCGTTTATGTGCATTTCAGAATTTCAAGCATAAATATACTCTTATTGTTTAAACATTTCAAATTGCATGTGTGAAATAATATCAGAGTTAGAATATATGTTAATCTTCTCTTCTCCTAGATTCAGTTAGATACGTTTCTATCTTCTTTTAGGCAACATCTCTTGTACAAATAGTCTCTTTGGCAATTCAATACAATCAACCTTTTACGATATATATATTTGTTATTTCTTGTACAAATAGGATCAAAATTGTTATTTCTGAAGCAAATTTTCTTTAGTTTGGATGTCAATTATATCCTCGATTAATATGTAATCACGGAACGGATTCACGATGCGTTATTTTAGAAGCAAATTTATACTTGATAGTACGTTCAGAGGCATCGCTTTTGTACAAATTGAAGCGGGTTTGTTCAATATTTAAAATAACACAGGAAACATTCAAATGTATTATTGATGTTGCTTAGGTTTGTGAAATGATATGAACCATATCGTATATATTACTAGATTTTTCTTATATGTTTTAAGGGTAGTGGGGCTGACCTATCATTCTGTTTGGCATTACCAATCAGACTATCAGAGTATTCACCATTCAGGATTCCATAACTAGAAAAAGAAGGGGTTTACATTTTCTCATACTGTATAATTTTCTACTATCAGAGATTTTATCGATTACATTAATCTCATAGTGATTATTCTGATTTATAAAAAAGTTGACAAAATAATTAAAACCAGTATTTTATAACAAGATTGTCTCTCTCCCATGGCCATTATTTTGACCTCTGACTTATTTAAATCTTAATTAACAGCATAATACTGTATTAAGCGTATTTAAATGAAACAAAATAAAAGAAAAAAAGAACAAAACGAAAGAGTGGACCACATGCGTGTCAAGAAAGGCCGGTCGTTACCGTTAAGGTGTGTCGAACTGTGATTGGGCCACGTTAACGGCGTATCCAAAAGAAAGAAAGGGCACGTGTATAGATCTAGGAAAAAAGAAAGAATGGACGGTTTAGATTGTATCTAGGTACCAGGAAATGGAACGTCACACCAAACGGTACGTGTCGGATCCTGCCCGTTGATGCTGACGGTCAGCAACTTCCCCTTATTCATGCCCCCCTGCCCGTTAATTACGTGTAACCCTTCCATGCGAAAATCAAACCCTTTTTTTTTTTTGCGTTCTTCTTCAACTTTTCTTTTTAAATCAAACCTTTTCTTTTTAAAATCACATTGCATTTCCTAACGCTCAACAAAATCTCTCTCTACTAATATCTCTCTCTCTCTCTCTCTATTGTTGAAGAAGACTCATAATCGGAGATTGTTTGTTTTTGGTTTGCTCTGTAAATTGGAGAAGTTTTGTTAGAGATCAA
B2: Promoter of RAFL05-18-I12: environmental stress responsive promoter DNA, SEQ ID NO: 2, upstream of At2g47770 (homolog of benzodiazepine receptor) (nucleic acid, listed as Arabidopsis thaliana)
DNA: ACCATGGCACCTGAAATACGTAAGGATACAAGAAGAGATATCATCACTGAATTCACTAAAATCACTCCCATCATAAACAGACAAATCAAAACCAAAATATTGTTCATTAACATCGTAAATGGACAACGCTTGACAACGTCTACAAATACTTGATGAAAAGAGATAAGAAATAAGTCTTCATTTATACCACATCAGTCTTCACGTAGATGATCAAGACGATCCCCAGATTGACAATGTAGAGAACACCAAAAAGAATCTGCAAAATGTAAGAGAGTAGAATTGAGACAAATGAAGCGATGGATGGATCAAATTCCGCAGCTAATCCAAAGATAGGAGATTCAAAGAGAGGGAATTGCAAGCACCTGAGCAGGGTAGACTTCCCCTCCAGTTAAGTTCTGCACTGCAGAGTAAACATAGAGGAAACCTGCTGGATAAACCAATGGCCCTGTATCGCCTTTCAAGTTCCCATAGTCTCTCTCTCCCCCGAGAAACCCACTAACCTGCCCCAATTAGATAAATTTCACTTAAAGACTACTAGTTTACTTTGAAGAAACCACAGTTGACCATTGACACTTACCTGTGACATGTAAGCATCCCAATCGATCTTCGTGTCTGTTAAAGGCAAATGACGAAATTTGGTTTAAAACCTATGCAAATGCACATTTCGAGGGATACGCAAGCAAAAAAAAAAAGGAGGTAAATAGCTCTCACATGGAACATAGGCGATAATAAGTGCGACTAGGATTGCATCAGCAAGAATTAGCGCGAATGCGAATGGAACTGCAGGTTTTTTGAATAGATCGGATCGATTCGTCTCCTTCCCCAGCCGACGGCTACGAGAAGCTCTCAAACTCGCCGGTGATGAGGCGCCCGCCATGAAAACAGAGCAAATCGCATCAGCGTCTAGCCAACGCCGCGTAACAGACAACTACTTCCATATTACTACTCTTCTAATTAGCCCAAATTAAATGAGCCTATTGGGCTTCTTGTCTTAGTCGGTGTAGAGCCCAATTGTTGTTTTATTTTTTAATAATGCAAAAGTATTAAGCGATAAATAAATAAGCATCGCAATCGTCCCAAAACTGTGTGTATGCATCAGACATGAGCATATAGAGTAAGCACGTGTCCACACTTTTTCACAAAGTTATCTAAAAACAAAAAACAATTAATTAGCATTCGACGTGTACATATCACTCGCCACGTGTACAAGAGCCTTGGCCTTTTTGCTTCTTCTTCTTGTCTATTAATATCATCTCCTGATTATACTCTCTTTTGACCAAGCTGCTTCTTCTCCATCTATCCAACATCTCAAATCTCAGTAATCTTGTTCCTTCGATTCTGTTTTGGACGTTTGTA

Assays:
[1] = tested on: Arabidopsis thaliana (columbia ecotype) plant body; test: full-length cDNA microarray analysis of gene expression levels after environmental stress application; settings: in vivo
Method: In this example, the gene expression levels at the time of application of various types of environmental stresses were analyzed using microarrays. Specifically, the microarrays described in Seki et al., “Monitoring the expression profiles of 7000 Arabidopsis genes under drought, cold, and high-salinity stresses using a full-length cDNA microarray,” Plant J. 31: 279-292, 2002, were used, and analysis was carried out in accordance with the method similar to the method described therein. Various types of environmental stresses were applied to a plant body under the following conditions. Specifically, low-temperature stress application was carried out by introducing a plate containing a plant body into a low-temperature chamber (4° C.). Dehydration stress application was carried out by capturing the plant body with forceps while refraining from damaging the plant body, roughly removing moisture from the plant body on a Kim Towel, placing the plant body on another plate, placing the plate in a clean bench while leaving the lid open, letting it stand for 2 hours, and then closing the lid. Salt stress application was carried out by dispensing a mixture of MS medium (containing 1% sucrose, 0.1% agar, and 1 mM luciferin) with 250 mM NaCl to the roots of the plant bodies (200 μl per plant body) using a Pipetman. ABA stress application was carried out by dispensing a mixture of MS medium (containing 1% sucrose, 0.1% agar, and 1 mM luciferin) with 100 μM ABA to the roots of the plant bodies (200 μl per plant body) using a Pipetman. As a plant body to which environmental stress is to be applied, Arabidopsis thaliana (columbia ecotype), which had been cultivated on a germination medium containing Murashige and Skoog Salt, 3% sucrose, and […] for 3 weeks, was used. Cultivation conditions were determined so as to maintain the temperature in the chamber at 22° C. with a 16-hour light period and an 8-hour dark period. Total RNA was extracted from plant bodies after environmental stress application or from plant bodies to which no environmental stress had been applied using the TRIZOL Reagent (Life Technologies), and mRNA was extracted using the mRNA isolation kit (Militenyi Biotec Auburn). In accordance with the method described in the above article, mRNA samples were reversely transcribed in the presence of Cy3 dUTP or Cy5 dUTP (Amersham Pharmacia). Microarray analysis was carried out using cDNAs obtained via reverse transcription. Data obtained via microarray analysis were analyzed using the Quantarray Version 2.0 (GSI Lumonics).

[2] = tested on: transgenic Arabidopsis thaliana plant body (luciferase reporter gene); test: luciferase assay of promoter::LUC transgenic plants after environmental stress application; type: in vivo; settings: for Tissue allowing specific induction: summary over stress types
Method: Specifically, promoter regions were isolated from these genes, transgenic plants in which luciferase reporter genes were to be expressed under the control of such promoters were prepared, and tissue specificity of the promoters was inspected via luciferase assay.
In this example, DNA fragments containing promoter regions of the genes identified in Example 1 were recovered via PCR.
The nucleotide sequences of the amplified DNA fragments were determined in accordance with a conventional technique to confirm that mutagenesis, such as substitution or deletion, was not introduced thereinto. After the absence of mutagenesis was confirmed, the recovered DNA fragments were introduced into the vector for promoter analysis (i.e., a vector prepared by introducing the Gateway recombinant sequence (tradename: Gateway Vector Conversion System, Invitrogen) and the luciferase reporter gene into the pGreen vector (Plant Molecular Biology 42: 819-832, 2000)) using the Gateway recombination system to construct a recombinant vector.
The recombinant vector prepared in (1) above was introduced into a plant via Agrobacterium infection. When a gene is introduced via Agrobacterium infection, a process of infecting a plant with Agrobacterium containing a plasmid comprising the target gene construct is necessary. This process was carried out via vacuum infiltration. Specifically, a plant body of Arabidopsis thaliana that had been grown in soil comprising vermiculite and an equivalent amount of pearlite was soaked in a culture solution of Agrobacterium containing the recombinant vector prepared in (1). The resultant was placed in a desiccator, suctioned with a vacuum pump to 65 to 70 mmHg, and then allowed to stand at room temperature for 5 to 10 minutes. The pot was transferred onto a tray, covered with a wrap, and kept moistened. The wrap was removed on the following day, the plant was allowed to grow in that state, and seeds were then harvested.
Subsequently, seeds were sown on MS agar medium to which antibiotic hygromycin has been added in order to select an individual having the recombinant vector prepared in (1). Arabidopsis thaliana that had been grown in this medium was transferred to a pot and allowed to grow therein. Thus, seeds of transgenic plants to which the recombinant vector prepared in (1) has been introduced were obtained.
The seeds of the transgenic plant lineage prepared in (2) were sowed on MS agar medium. The plant body 10 days after sowing was used for luciferase assay.
At the outset, 1 mM luciferin (containing 0.01% Triton-X) was sprayed over the entire plant body 5 times. After the plant body was allowed to stand in the dark for 5 minutes, luciferase luminescence was assayed using ARGUS (assay after treatment for 0 hours). Subsequently, various types of environmental stresses were applied (see below). Low-temperature stress application was carried out by introducing a plate containing a plant body into a low-temperature chamber (4° C.). Dehydration stress application was carried out by capturing the plant body with forceps while refraining from damaging the plant body, roughly removing moisture from the plant body on a Kim Towel, placing the plant body on another plate, placing the plate in a clean bench while leaving the lid open, letting it stand for 2 hours, and then closing the lid. Salt stress application was carried out by dispensing a mixture of MS medium (containing 1% sucrose, 0.1% agar, and 1 mM luciferin) with 250 mM NaCl to the roots of the plant bodies (200 μl per plant body) using a Pipetman. ABA stress application was carried out by dispensing a mixture of MS medium (containing 1% sucrose, 0.1% agar, and 1 mM luciferin) with 100 μM ABA to the roots of the plant bodies (200 μl per plant body) using a Pipetman.
Luciferase luminescence was assayed 2, 5, and 10 hours after the above various types of environmental stresses had been applied using the ARGUS system (Hamamatsu Photonics). […]

Molecule	Environmental stress type to which the promoter responds [1]	Tissue in which specific induction of expression is realized ([2]; ABA stress (100 μM ABA))	Tissue in which specific induction of expression is realized ([2]; ABA stress (100 μM ABA), listed as promoter of RAFL06-07-B19)	Tissue in which specific induction of expression is realized ([2]; Dehydration stress)	Tissue in which specific induction of expression is realized ([2]; Dehydration stress, listed as promoter of RAFL06-07-B19)	tissue in which expression is induced ([2]; dehydration stress applied for 5 hours)	tissue in which expression is induced ([2]; dehydration stress applied for 10 hours)	tissue in which expression is induced ([2]; dehydration stress applied for 10 hours, listed as promoter of RAFL06-07-B19)	Tissue allowing specific induction [2]	activity to induce gene expression ([2]; 5 hours after dehydration stress application)	Tissue in which specific induction of expression is realized ([2]; Dehydration stress, listed as promoter of RAFL05-18-I12)
B1	Dehydration, salt,	Root tissue	root tissue	Stem and leaf tissue and root tissue*^1	stem and leaf tissue and root tissue	stem and leaf tissue and root tissue	leaf tissue and root tissue	lowered activity to induce gene expression in stem tissue and root tissue but to induce gene expression in leaf tissue	Stem and leaf tissue and root tissue		
B2	Dehydration and salt			Stem and leaf tissue and root tissue					Stem and leaf tissue and root tissue	strong activity	stem and leaf tissue and root tissue
